From patent JP2012034697A

Molecular target: Aβ(βアミロイドペプチド) (UniProt P05067)
Test: BIAcore

UniProt P05067, sequence (P05067 672-713 limits assumed): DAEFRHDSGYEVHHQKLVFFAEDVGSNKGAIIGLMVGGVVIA

In the case of マウスモノクローナル抗体3D6 (antibody), the Kd is reported as 0.88 nM.
